Tests used:
[1] = target: T1, Tetracycline repressor protein (TetR) (UniProt P04483 P04483:1-207); assay: flow; 50 mM Tris pH 8.0, 50 mM KCl, 5 mM MgCl2, room temperature; repression 56% cell-free, 75% yeast; details: tags: N-terminal T7 tag, C-terminal His6 (pET24a); chain copies: 2 (inferred, TetR dimer); label: 3' fluorescein
Protocol: (§1) Quantitative affinity measurements of aptamer interactions with TetR were performed as described previously. Brodsky et al, “A microbead-based system for identifying and characterizing RNA-protein interactions by flow cytometry” Mol Cell Proteomics 1:922-929 (2002); and Warren et al, “A novel binding assay to assess specificity of monoclonal antibodies” J Immunol Methods 305:33-38 (2005). Dynabeads TALON® (Invitrogen) (1 μL) were washed with Affinity Binding Buffer (ABB) (BB+10 μg/mL BSA) and centrifuged at 250×g for 2 mins. Beads were resuspended in ABB and incubated with 60 μg of purified His₆-tagged TetR for 1 h at room temperature. TetR-coated beads were washed twice and resuspended in ABB. Beads were counted by microscopy, and 70,000 beads were placed per well in a 96-well microplate. Fluorescein-labeled RNA in ABB was added to the beads. […] The median fluorescence intensities of the samples were plotted against RNA or DNA concentration using GraphPad Prism® 5 (GraphPad Software, Inc.).
(§2) This example presents a data summary of the various constructs tested for TetR-aptamer binding, cell-free translation, and yeast in vivo expression experiments. Translational repression is reported as the luminescence intensity of the uninduced condition relative to the induced condition. The binding of RNA aptamers to TetR was measured by flow cytometry. […]

[2] = target: T1, Tetracycline repressor protein (TetR); assay: flow; 50 mM Tris pH 8.0, 50 mM KCl, 5 mM MgCl2, room temperature; repression 91% cell-free, 81% yeast; details: tags: N-terminal T7 tag, C-terminal His6 (pET24a); chain copies: 2 (inferred, TetR dimer); label: 3' fluorescein; stem-loop
Protocol: as §1, §2

[3] = target: T1, Tetracycline repressor protein (TetR); assay: flow; binding listed as NS; no translation repression; details: tags: N-terminal T7 tag, C-terminal His6 (pET24a); chain copies: 2 (inferred, TetR dimer); label: 3' fluorescein
Protocol: as §1, §2

[4] = target: T1, Tetracycline repressor protein (TetR); assay: flow; IRE does not bind TetR with high affinity; no translation repression; details: tags: N-terminal T7 tag, C-terminal His6 (pET24a); chain copies: 2 (inferred, TetR dimer); hairpin
Protocol: Quantitative affinity measurements of aptamer interactions with TetR were performed as described previously. Brodsky et al, “A microbead-based system for identifying and characterizing RNA-protein interactions by flow cytometry” Mol Cell Proteomics 1:922-929 (2002); and Warren et al, “A novel binding assay to assess specificity of monoclonal antibodies” J Immunol Methods 305:33-38 (2005). Dynabeads TALON® (Invitrogen) (1 μL) were washed with Affinity Binding Buffer (ABB) (BB+10 μg/mL BSA) and centrifuged at 250×g for 2 mins. Beads were resuspended in ABB and incubated with 60 μg of purified His₆-tagged TetR for 1 h at room temperature. TetR-coated beads were washed twice and resuspended in ABB. Beads were counted by microscopy, and 70,000 beads were placed per well in a 96-well microplate. Fluorescein-labeled RNA in ABB was added to the beads. Nonspecific RNA interactions were reduced by adding 10 μg/mL yeast tRNA. The binding reaction proceeded with moderate shaking for 4 h at room temperature. […] The median fluorescence intensities of the samples were plotted against RNA or DNA concentration using GraphPad Prism® 5 (GraphPad Software, Inc.).
Several aptamers, but not the iron-responsive element, bind TetR with high affinity. […] Reporter expression was measured in a rabbit reticulocyte cell-free system or in S. cerevisiae in the presence and absence of the inducer aTc.

[5] = target: T1, Tetracycline repressor protein (TetR); assay: flow; 50 mM Tris pH 8.0, 50 mM KCl, 5 mM MgCl2, room temperature; no significant translation repression; details: tags: N-terminal T7 tag, C-terminal His6 (pET24a); chain copies: 2 (inferred, TetR dimer); label: 3' fluorescein
Protocol: as §1, §2

[6] = target: T1, Tetracycline repressor protein (TetR); assay: flow; 50 mM Tris pH 8.0, 50 mM KCl, 5 mM MgCl2, room temperature; repression NS cell-free, 9% yeast; details: tags: N-terminal T7 tag, C-terminal His6 (pET24a); chain copies: 2 (inferred, TetR dimer); label: 3' fluorescein
Protocol: as §1, §2

T1 sequence (P04483 whole entry, one chain of several): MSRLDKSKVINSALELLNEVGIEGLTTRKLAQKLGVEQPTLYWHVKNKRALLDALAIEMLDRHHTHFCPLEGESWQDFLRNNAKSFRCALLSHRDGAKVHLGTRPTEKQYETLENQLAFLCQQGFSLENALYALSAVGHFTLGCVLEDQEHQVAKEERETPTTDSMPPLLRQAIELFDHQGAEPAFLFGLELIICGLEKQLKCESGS

B1: 5-1.13 (ssRNA)
RNA: GGGAGCUCAGAAUAAACGCUCAACUCCUGUAGUGAAGGCAGAGAAAGGUCGAUACGGACGGAAUGUGAUGGCCUUCGACAUCAGGCCCGGAUCCGGC
Kd [1]: 0.37 nM

B2: 5-1.2 (ssRNA)
RNA: GGAUCCAGGCAGAGAAAGGUCGAUACGGACGGAAUGUGAUGGCCUGGAUCC
Kd [2]: 1.6 nM

B3: 5-1.2m2 (ssRNA)
RNA: GGAUCCAGGCAGUGUAAGGUCGAUACGGACGGAAUGUGAUGGCCUGGAUCC
binding result [3]: no binding

CUUAAGCUUCAACAGUGCUUGAACUUAAG (ssRNA) [Iron Responsive Element (IRE)]
binding result [4]: no binding

B4: 5-29.13a (ssRNA)
RNA: GGGAGCUCAGAAUAAACGCUCAACUUGCUGCAGAGGGUCGAGAAUAUGUGUGACACUGCGUCGACGGGUUAAGUUCGACAUCAGGCCCGGAUCCGGC
Kd [5]: 2.77 nM

B5: 5-18.13 (ssRNA)
RNA: GGGAGCUGAGAAUAAACGCUCAAUAGGGAGAGAACUGUGUCAGAAUGUAGUGAACCAGACACGGAGUGGAGUAUUCGACAUCAGGCCCGGAUCCGGC
Kd [6]: 0.45 nM

B6: 5-14.7b (ssRNA)
RNA: GGGAGCUGAGAAUAAACGCUCAACAGGAAACAGCAAGACAAACGAUGGGGAGCGUAAGACUGCGAGUGUCGGAUUCGACAUCAGGCCCGGAUCCGGC
Kd [5]: 1.44 nM

— patent US20110245326, “Post-Transcriptional Regulation Of RNA-Related Processes Using Encoded Protein-Binding RNA Aptamers” (published 2011)
